Patent US20260115256A1 (HANGZHOU SCIWIND BIOSCIENCES, published 2026)
*1 amine or outer side, *2 acyl side, *3 side chain or, on linkers, in order; H or OH if unused. Bridges are numbered along the chain shown (N, C = ends). Where no end group is shown, it is not given here. Side-chain parts run from the residue outwards. [ ]: non-standard residue; d: D form. The star is where a group is joined. C20 diacid = O=C(O)CCCCCCCCCCCCCCCCCCC(=O)*; C18 diacid = O=C(O)CCCCCCCCCCCCCCCCC(=O)*; γGlu = O=C(O)[C@H](CCC(=O)[*:2])N[*:1]; Hyp = O=C(O)[C@@H]1C[C@@H](O)CN1; hArg = N=C(N)NCCCC[C@H](N)C(=O)O; Orn = NCCC[C@H](N)C(=O)O; Dab = NCC[C@H](N)C(=O)O; Dap = NC[C@H](N)C(=O)O; AEEA = NCCOCCOCC(=O)O

T1: human amylin receptor (AMY3) on CHO-K1/Ga15/AMY3 cells (human, UniProt P30988 25-474; O60896 24-148)
T1 sequence (looked up) 1: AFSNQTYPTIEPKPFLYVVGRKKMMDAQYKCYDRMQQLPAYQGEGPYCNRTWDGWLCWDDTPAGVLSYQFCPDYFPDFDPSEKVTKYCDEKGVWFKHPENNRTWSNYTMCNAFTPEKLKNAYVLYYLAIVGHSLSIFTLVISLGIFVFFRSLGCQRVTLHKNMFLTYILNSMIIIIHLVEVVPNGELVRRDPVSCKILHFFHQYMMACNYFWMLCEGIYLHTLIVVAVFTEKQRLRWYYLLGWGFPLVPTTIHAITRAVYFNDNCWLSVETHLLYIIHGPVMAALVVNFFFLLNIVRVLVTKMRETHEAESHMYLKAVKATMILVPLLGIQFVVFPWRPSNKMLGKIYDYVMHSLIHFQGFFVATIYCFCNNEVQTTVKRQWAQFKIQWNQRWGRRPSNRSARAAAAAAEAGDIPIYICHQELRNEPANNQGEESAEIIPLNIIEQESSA
T1 sequence (looked up) 2: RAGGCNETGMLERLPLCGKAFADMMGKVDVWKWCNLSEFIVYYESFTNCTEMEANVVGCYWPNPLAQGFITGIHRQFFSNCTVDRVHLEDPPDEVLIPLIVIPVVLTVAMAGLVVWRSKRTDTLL


Molecular target: T1, human amylin receptor (AMY3) on …
Assay: cell-based or functional assay

Row | EC50, CRE-luciferase assay | Binder
1 | 0.033 nM | RCNTATCATQRLADFLRHSSNK([γGlu-C20 diacid])LGPILPPTNVGSNT[Hyp]-NH2 (disulfide 2-7 (inferred)) [PD086]
2 | 0.035 nM | HCNTATCATQRLADFLRHSSNNLK([γGlu-C20 diacid])PILPPTNVGSNT[Hyp]-NH2 (disulfide 2-7 (inferred)) [PD078]
3 | 0.131 nM | DCNTATCATQRLADFLRHSSNNLK([γGlu-C20 diacid])PILPPTNVGSNT[Hyp]-NH2 (disulfide 2-7 (inferred)) [PD079]
4 | 0.066 nM | [Dab]CNTATCATQRLADFLRHSSNNLK([γGlu-C20 diacid])PILPPTNVGSNT[Hyp]-NH2 (disulfide 2-7 (inferred)) [PD074]
5 | 0.037 nM | RCNTATCATQRLADFLRHSSNNK([AEEA-AEEA-γGlu-C20 diacid])GPILPPTNVGSNT[Hyp]-NH2 (disulfide 2-7 (inferred)) [PD083]
6 | 0.04 nM | KCNTATCATQRLADFLRHSSNNLK([γGlu-C20 diacid])PILPPTNVGSNT[Hyp]-NH2 (disulfide 2-7 (inferred)) [PD076]
7 | 0.031 nM | RCNTATCATQRLADFLRHSSNNLK([AEEA-AEEA-γGlu-C20 diacid])PILPPTNVGSNT[Hyp]-NH2 (disulfide 2-7 (inferred)) [PD081]
8 | 0.005 nM | RCNTATCATQRLADFLRHSSNNK([AEEA-AEEA-γGlu-C18 diacid])GPILPPTNVGSNT[Hyp]-NH2 (disulfide 2-7 (inferred)) [PD085]
9 | 0.019 nM | RCNTATCATQRLADFLRHSSK([AEEA-AEEA-γGlu-C18 diacid])NLGPILPPTNVGSNT[Hyp]-NH2 (disulfide 2-7 (inferred)) [PD093]
10 | 0.205 nM | RCNTATCATQRLAEFLRHSSNK([γGlu-C20 diacid])LGPILPPTNVGSNTP-NH2 (disulfide 2-7 (inferred)) [PD007]
11 | 0.016 nM | RCNTATCATQRLADFLRHSSK([γGlu-C18 diacid])NLGPILPPTNVGSNT[Hyp]-NH2 (disulfide 2-7 (inferred)) [PD092]
12 | 0.031 nM | RCNTATCATQRLADFLRHSSK([γGlu-C20 diacid])NLGPILPPTNVGSNT[Hyp]-NH2 (disulfide 2-7 (inferred)) [PD090]
13 | 0.008 nM | RCNTATCATQRLADFLRHSSNNK([γGlu-C18 diacid])GPILPPTNVGSNT[Hyp]-NH2 (disulfide 2-7 (inferred)) [PD084]
14 | 0.038 nM | RCNTATCATQRLADFLRHSSNNK([γGlu-C20 diacid])GPILPPTNVGSNT[Hyp]-NH2 (disulfide 2-7 (inferred)) [PD082]
15 | 0.033 nM | RCNTATCATQRLADFLRHSSNNLGK([γGlu-C20 diacid])ILPPTNVGSNT[Hyp]-NH2 (disulfide 2-7 (inferred)) [PD102]
16 | 0.042 nM | RCNTATCATQRLADFLRHSK([γGlu-C18 diacid])NNLGPILPPTNVGSNT[Hyp]-NH2 (disulfide 2-7 (inferred)) [PD096]
17 | 0.034 nM | [hArg]CNTATCATQRLADFLRHSSNNLK([γGlu-C20 diacid])PILPPTNVGSNT[Hyp]-NH2 (disulfide 2-7 (inferred)) [PD077]
18 | 0.027 nM | K([γGlu-C20 diacid])CNTATCATQRLADFLRHSSNNLKPILPPTNVGSNT[Hyp]-NH2 (disulfide 2-7 (inferred)) [PD072]
19 | 0.028 nM | {C20 diacid-γGlu}-KCNTATCATQRLADFLRHSSNNLKPILPPTNVGSNT[Hyp]-NH2 (disulfide 2-7 (inferred)) [PD071]
20 | 0.012 nM | RCNTATCATQRLADFLRHK([AEEA-AEEA-γGlu-C18 diacid])SNNLGPILPPTNVGSNT[Hyp]-NH2 (disulfide 2-7 (inferred)) [PD101]

More lines, now with the values behind:

Row | Binder | EC50, CRE-luciferase assay
21 | ECNTATCATQRLADFLRHSSNNLK([γGlu-C20 diacid])PILPPTNVGSNT[Hyp]-NH2 (disulfide 2-7 (inferred)) [PD080] | 0.11 nM
22 | RCNTATCATQRLADFLRHK([γGlu-C20 diacid])SNNLGPILPPTNVGSNT[Hyp]-NH2 (disulfide 2-7 (inferred)) [PD098] | 0.077 nM
23 | RCNTATCATQRLADFLRHSSK([AEEA-AEEA-γGlu-C20 diacid])NLGPILPPTNVGSNT[Hyp]-NH2 (disulfide 2-7 (inferred)) [PD091] | 0.03 nM
24 | RCNTATCATQRLADFLRHSSNK([AEEA-AEEA-γGlu-C20 diacid])LGPILPPTNVGSNT[Hyp]-NH2 (disulfide 2-7 (inferred)) [PD087] | 0.032 nM
25 | RCNTATCATQRLADFLRHSK([γGlu-C20 diacid])NNLGPILPPTNVGSNT[Hyp]-NH2 (disulfide 2-7 (inferred)) [PD094] | 0.034 nM
26 | RCNTATCATQRLADFLRHK([γGlu-C18 diacid])SNNLGPILPPTNVGSNT[Hyp]-NH2 (disulfide 2-7 (inferred)) [PD100] | 0.06 nM
27 | RCNTATCATQRLADFLRHSK([AEEA-AEEA-γGlu-C18 diacid])NNLGPILPPTNVGSNT[Hyp]-NH2 (disulfide 2-7 (inferred)) [PD097] | 0.014 nM
28 | RCNTATCATQRLAEFLRHSSNNK([γGlu-C20 diacid])GPILPPTNVGSNTP-NH2 (disulfide 2-7 (inferred)) [PD008] | 0.281 nM
29 | RCNTATCATQRLADFLRHSSNK([γGlu-C18 diacid])LGPILPPTNVGSNT[Hyp]-NH2 (disulfide 2-7 (inferred)) [PD088] | 0.013 nM
30 | RCNTATCATQRLAEFLRHSSK([γGlu-C20 diacid])NLGPILPPTNVGSNTP-NH2 (disulfide 2-7 (inferred)) [PD006] | 0.129 nM
31 | RCNTATCATQRLADFLRHK([AEEA-AEEA-γGlu-C20 diacid])SNNLGPILPPTNVGSNT[Hyp]-NH2 (disulfide 2-7 (inferred)) [PD099] | 0.033 nM
32 | RCNTATCATQRLADFLRHSSNK([AEEA-AEEA-γGlu-C18 diacid])LGPILPPTNVGSNT[Hyp]-NH2 (disulfide 2-7 (inferred)) [PD089] | 0.018 nM
33 | [Dap]CNTATCATQRLADFLRHSSNNLK([γGlu-C20 diacid])PILPPTNVGSNT[Hyp]-NH2 (disulfide 2-7 (inferred)) [PD073] | 0.063 nM
34 | RCNTATCATQRLADFLRHSK([AEEA-AEEA-γGlu-C20 diacid])NNLGPILPPTNVGSNT[Hyp]-NH2 (disulfide 2-7 (inferred)) [PD095] | 0.047 nM
35 | [Orn]CNTATCATQRLADFLRHSSNNLK([γGlu-C20 diacid])PILPPTNVGSNT[Hyp]-NH2 (disulfide 2-7 (inferred)) [PD075] | 0.048 nM
